According to patent publication US10669350B2, “Antigen-binding constructs that bind to and inhibit catalase and/or superoxide dismutase as well as pharmaceutical compositions containing them for tumor therapy” (priority 2015, dated 2020):
Entries after “also recorded” stand apart in the source; their conditions may differ.

B1: aSODcb0991: single domain VHH fragment binding to human SOD1, but not neutralizing; SEQ ID NO: 16 (protein)
VHH: MAQVQLVESGGGIVQPGGSLRLSCVASESISDIDAMYWHRQAPGKRRELVAGITNDGTEYFADSVKGRFAISRDNTKSSLYLQMNSLKLEDTAMYYCATLPNPPPGYWGQGTQVTVSSKKKHHHHHH
modifications: SOD binding
B2: aSODcb0989: single domain VHH fragment that binds to and neutralizes human SOD1; SEQ ID NO: 15 (protein)
VHH: MAQVQLVESGGGLVQSGGSLTLSCTASGFTISNYPMTWVRQAPGKGLEWVSRINSGGDRTLYADSVKGRFTVSRDNARNTMYLQMNNLKPEDTGLYFCADSGAGWRYWGQGTQVTVSSKKKHHHHHH
modifications: SOD binding

How the values were obtained:
[1] = system: human neuroblastoma line SHEP; assay: Standard preparation for apoptosis induction in SHEP cells (percentage of apoptotic cells); type: cell-based
Description: (§1) The experiments shown in FIG. 13-24 were carried out with a standard preparation for the apoptosis induction that is based on the method performed in Heinzelmann and Bauer 2010. The tumor cells used were taken from an optimally growing semi-sealed culture, centrifuged and placed in fresh medium. The test was performed in 96-well cell culture plates with 12 500 MKN-45 cells/100 μl medium or 10 000 SHEP cells/100 μl medium. MKN-45 cells grow in suspension, SHEP cells are adherent. The tests with SHEP cells were started as soon as the cells had grown on. By adding increasing concentrations of single domain VHH fragments that either inhibit catalase or SOD the protection of the tumor cells from their own ROS signaling was annulled so that based on the cell-owned extracellular superoxide anion production the NO/peroxynitrite signal path and the HOCl path (with MKN-45 cells) or in case of the SHEP cells only the NO/peroxynitrite path could start when the cells were incubated at 37° C. The analysis of the signal paths was carried out by the application of inhibitors of the NADPH oxidase (AEBSF), the HOCl scavenger taurine, the peroxynitrite scavenger FeTPPS and the singlet oxygen scavenger histidine. In some experiments for comparison instead of the single domain VHH fragments either recombinant Fab fragments or monoclonal antibodies were applied. This is indicated in the respective illustrations.
(§2) Double preparations were examined at the times shown in the text by means of phase contrast reverse microscopy for the percentage of apoptotic cells. Here, the classical apoptosis criteria described and documented in Heinzelmann and Bauer 2010 such as condensation of the nucleus, fragmentation of the nucleus, and membrane blebbing were used. Per single preparation at least 250 randomly selected cells were examined for the presence of apoptosis features.
10 000 cells of the human neuroblastoma line SHEP per 100 μl medium were mixed with the given concentrations of the catalase-neutralizing single domain VHH fragment aCATcb0972, the SOD-neutralizing single domain VHH fragment aSOD0989, the SOD-binding but not neutralizing single domain VHH fragment aSODcb991 and the hybrid molecule aCATaSOD and incubated for 5 hours at 37° C., 5% CO2, before percentages of apoptotic cells were determined.
10 000 cells of the human neuroblastoma line SHEP per 100 μl medium were mixed with the given concentrations of the SOD-neutralizing single domain VHH fragment aSOD0989. Parallel preparations received 20 μM or 100 μM of the NO donor sodium nitroprusside or were incubated without a further additive. After 5 hours at 37° C., 5% CO2 the percentages of apoptotic cells were determined.

human SOD1 [2] = target: T1, human SOD1 (Homo sapiens, UniProt P00441); assay: ELISA selection of clones binding to human SOD1
Text: The preparation was by immunizing alpacas with human SOD1 (SOD1=Cu/ZnSOD [EC 1.15.1.1] purified from human erythrocytes, obtained from Sigma (Schnelldorf), catalogue number S 9636) under supervision of a veterinary, obtaining RNA from the B cells of the animals, reverse transcription, cloning in E. coli and isolation via the phage display technology. […] In a second run, by employing the cell culture system described by Heinzelmann and Bauer (Multiple protective functions of catalase against intercellular apoptosis-inducing ROS signaling of human tumor cells, Biol. Chem. 391, 675-693, 2010) it was checked which of the single domain VHH fragments binding to SOD actually results in an inhibition of SOD, what is expressed in the tumor system used as ROS-dependent apoptosis induction in the cells, since by the inhibition of SOD the concentration of free superoxide anions dramatically increases due to the absence of the enzymatic dismutation and results in a parallel indirect inhibition of catalase. In the following, this is expressed as ROS-dependent apoptosis induction. In a further control trial the specific inhibition of SOD by recombinant single domain VHH fragments was verified by the fact that the increasing effect of these fragments on apoptosis induction by exogenously added HOCl was examined, as described in Bauer 2013 (HOCl-dependent singlet oxygen and hydroxyl radical generation modulate and induce apoptosis of malignant cells. Anticancer Res 33: 3589-3602, 2013).

human SOD1 [3] = target: T1, human SOD1; assay: Check for inhibition (neutralization) of SOD, ROS-dependent apoptosis induction and HOCl control trial; type: cell-based; design: endogenous in cells; host or cells: MKN-45 human gastric carcinoma cells
Text: Thus, the inhibition of the SOD mediated by single domain VHH or Fab fragments (comparison) can be determined by the fact that the apoptosis induction of tumor cells by exogenously added HOCl is employed as the test system. HOCl in a concentration depending manner induces apoptosis that is based on the interaction between HOCl and superoxide anions that results in the formation of aggressive hydroxyl radicals (Bauer G. HOCl-dependent singlet oxygen and hydroxyl radical generation modulate and induce apoptosis of malignant cells. Anticancer Res 33: 3589-3602, 2013). […] That is, the neutralizing effect of single domain VHH or Fab fragments can be determined by checking whether the inhibition of the apoptosis is abolished again by the single domain VHH or Fab fragments to be tested. The quantitative employment of said test system requires linking several simple steps the skilled person is familiar with. In the first step the concentration of commercially available HOCl (or sodium hypochlorite that sufficiently forms HOCl in medium) is determined that generates a significant quantifiable apoptosis signal within a reasonable trial time (1-2 hours). […] As soon as the first two steps have been satisfactorily performed there can take place the actual test of the inhibiting effect of the single domain VHH or Fab fragments. For that, selected concentrations of the fragments to be tested are pre-incubated for 20 minutes with the optimal concentration of SOD determined in advance in step #2. Subsequently, said mixture is added to the test cells. Thereafter, HOCl is added and the apoptosis induction is determined. […]
The preparation was by immunizing alpacas with human SOD1 (SOD1=Cu/ZnSOD [EC 1.15.1.1] purified from human erythrocytes, obtained from Sigma (Schnelldorf), catalogue number S 9636) under supervision of a veterinary, obtaining RNA from the B cells of the animals, reverse transcription, cloning in E. coli and isolation via the phage display technology. […] In the following, this is expressed as ROS-dependent apoptosis induction. […]

[4] = system: MKN-45 gastric carcinoma cells; assay: Standard preparation for autocrine ROS-controlled apoptosis induction in tumor cells (percentage of apoptotic cells); type: cell-based, human
Description: as §1
as §2, with “features. […]” for “features.”

[5] = system: human colon carcinoma xenotransplant; assay: Growth of human colon carcinoma xenotransplant on immunocompromised mice; type: in vivo
Description: The experiments carried out in FIGS. 28A and 28B and FIG. 29 were carried out by a commercial certified supplier (Oncotest GmbH, Freiburg). Here, xenotransplants of a human colon carcinoma were implanted in suitable mice. After the tumors had grown on and a certain minimum size had been achieved, the therapeutic test was started. aSODcb0989 in the indicated doses (mg/kg body weight) or buffer were intravenously applied twice a week. Also, the tumor sizes were measured twice a week by means of a caliber.

T1 sequence (P00441 2-154 limits assumed): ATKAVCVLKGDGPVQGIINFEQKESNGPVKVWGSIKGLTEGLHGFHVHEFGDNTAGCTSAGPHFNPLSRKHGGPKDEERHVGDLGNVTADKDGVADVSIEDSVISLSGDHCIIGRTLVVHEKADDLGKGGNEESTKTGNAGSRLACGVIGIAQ

Molecule | concentration required for apoptosis-inducing effect relative to the neutralizing single domain VHH fragment ([1]; 5 hours) | apoptosis induction in SHEP cells ([1]; 5 hours at 37° C., 5% CO2) | binding to human SOD1 (human SOD1 [2]) | neutralization (inhibition) of human SOD1 (human SOD1 [3]) | apoptosis induction in the presence of peroxynitrite scavenger FeTPPS ([4]; 25 μM FeTPPS) | apoptosis induction in the presence of HOCl scavenger taurine ([4]; 50 mM taurine) | apoptosis induction in combination with 0.005 pg/ml of the complementary single domain VHH fragment ([4]; 3.5 hours, FIG. 18) | optimum conc. ([4]; Table 1, concentration necessary for optimum apoptosis induction, taken from FIGS. 13A, 13B, 15A, 15B, 20) | optimum conc. ([4]; Table 2, FIG. 20 experiment, 3.5 hours) | ROS signaling path induced ([4]; inhibitor analysis) | tumor growth versus control group ([5]; 0.03 mg/kg intravenously twice a week) | tumor growth versus control group ([5]; 0.3 mg/kg intravenously twice a week) | tumor growth versus control group ([5]; 0.9 mg/kg intravenously twice a week)
B1 | 10^6 fold | at high concentrations also achieves an apoptosis-inducing effect; also recorded: weak but significant apoptosis induction | bind to human SOD1 | do not neutralize it | – | – | – | – | – | – | – | – | –
B2 | – | – | binds to | neutralizes human SOD1 | complete inhibition by means of FeTPPS | disappearance of an inhibition by taurine | noteworthy synergistic effect | 1.2 pg/mL | 0.35 pg/mL | exclusively via the NO/peroxynitrite path | there does not result a recognizable difference to the controls | very clearly differs from the control group | in some animals the growth inhibition is enhanced, whereas in other animals there is caused the contrary
